Data from patent publication US9327008B2, “Cell-permeant peptide-based inhibitor of kinases” (Purdue Research Foundation, priority 2008, dated 2016).

Tests used:
Assay type in all cases: biochemical
Aurora-A = biological target: T1, Aurora-A (Homo sapiens, UniProt O14965); experiment: Millipore radiometric kinase activity assay, Aurora-A (h)
T1 construct: purchased Millipore (assay service)
T1 sequence (O14965 1-403): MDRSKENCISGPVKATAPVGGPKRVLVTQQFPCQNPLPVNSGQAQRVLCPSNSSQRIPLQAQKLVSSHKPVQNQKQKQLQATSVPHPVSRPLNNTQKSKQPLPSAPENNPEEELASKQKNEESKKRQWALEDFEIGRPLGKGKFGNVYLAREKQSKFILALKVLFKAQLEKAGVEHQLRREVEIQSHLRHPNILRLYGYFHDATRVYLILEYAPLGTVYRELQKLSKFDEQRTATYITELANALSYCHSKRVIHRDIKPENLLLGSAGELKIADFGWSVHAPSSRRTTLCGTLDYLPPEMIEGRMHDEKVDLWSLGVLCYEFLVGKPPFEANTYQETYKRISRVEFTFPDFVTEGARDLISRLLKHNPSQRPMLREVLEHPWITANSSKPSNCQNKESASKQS
Description: (§1) A commercial radiometric assay service (Millipore, Billerica, Mass.) was used to test the specificity and potency of peptides containing a coupled transduction domain and therapeutic domain, hereinafter “complete peptides”). In these assays, if the kinase is not inhibited by an inhibitor peptide, a positively charged substrate is phosphorylated with a radiolabeled phosphate group from an ATP.
In a final reaction volume of 25 μL, Aurora-A (h) (5-10 mU) is incubated with 8 mM MOPS pH 7.0, 0.2 mM EDTA, 200 μM LRRASLG [SEQ ID NO: 50] (Kemptide), 10 mM MgAcetate and [γ-^33P-ATP] (specific activity approx. 500 cpm/pmol, concentration as required). The reaction is initiated by the addition of the MgATP mix. After incubation for 40 minutes at room temperature, the reaction is stopped by the addition of 5 μL of a 3% phosphoric acid solution. 10 μL of the reaction is then spotted onto a P30 filtermat and washed three times for 5 minutes in 50 mM phosphoric acid and once in methanol prior to drying and scintillation counting.
(§2) IC50 values for inhibitor peptides were determined using Millipore's IC50Profiler Express service. The IC50 value was estimated from a 10-point curve of one-half log dilutions. For peptides tested for specificity, the concentration of the peptides that inhibited approximately 95% of MK2 activity was chosen to profile against a battery of kinases related to MK2, cell viability, or human disease from MilliporeKinaseProfiler service. In both assays, compounds were supplied in dimethylsulfoxide (DMSO). Every kinase activity measurement was conducted in duplicate.
(§3) Therapeutic inhibitor peptides were assayed for activity against human kinases related to MK2, cell viability, or human disease. The assays were performed using concentrations of therapeutic inhibitor peptides that yielded 2% to 8% of normal MK2 activity. Error is reported as the standard deviation between 2 samples, and “c” is rat AMPK whereas all other kinases used are human kinases.

BTK = biological target: T2, BTK (Homo sapiens, UniProt Q06187); experiment: Millipore radiometric kinase activity assay, BTK (h)
T2 construct: purchased Millipore (assay service)
T2 sequence (Q06187 whole entry): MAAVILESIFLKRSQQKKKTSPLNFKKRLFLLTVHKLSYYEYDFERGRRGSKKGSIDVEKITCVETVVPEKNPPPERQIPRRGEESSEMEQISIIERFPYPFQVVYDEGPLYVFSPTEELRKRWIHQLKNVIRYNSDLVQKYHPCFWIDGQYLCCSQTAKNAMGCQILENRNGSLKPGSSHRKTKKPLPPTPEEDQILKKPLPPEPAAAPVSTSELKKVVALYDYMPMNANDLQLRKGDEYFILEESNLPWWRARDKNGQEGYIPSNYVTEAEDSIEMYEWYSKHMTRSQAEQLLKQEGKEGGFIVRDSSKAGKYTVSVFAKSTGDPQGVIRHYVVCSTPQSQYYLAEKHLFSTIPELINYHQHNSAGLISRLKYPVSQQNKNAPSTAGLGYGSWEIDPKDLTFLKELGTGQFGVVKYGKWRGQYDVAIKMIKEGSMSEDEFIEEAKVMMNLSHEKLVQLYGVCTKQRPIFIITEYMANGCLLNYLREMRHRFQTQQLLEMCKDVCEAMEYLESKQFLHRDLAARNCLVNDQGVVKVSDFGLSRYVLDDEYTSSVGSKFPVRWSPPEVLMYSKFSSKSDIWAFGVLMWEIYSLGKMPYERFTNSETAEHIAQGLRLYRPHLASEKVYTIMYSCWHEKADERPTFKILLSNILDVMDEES
Excerpt: A commercial radiometric assay service (Millipore, Billerica, Mass.) was used to test the specificity and potency of peptides containing a coupled transduction domain and therapeutic domain, hereinafter “complete peptides”). In these assays, if the kinase is not inhibited by an inhibitor peptide, a positively charged substrate is phosphorylated with a radiolabeled phosphate group from an ATP. […] The reaction is initiated by the addition of the MgATP mix. […] IC50 values for inhibitor peptides were determined using Millipore's IC50Profiler Express service. The IC50 value was estimated from a 10-point curve of one-half log dilutions. […] In both assays, compounds were supplied in dimethylsulfoxide (DMSO). Every kinase activity measurement was conducted in duplicate. Therapeutic inhibitor peptides were assayed for activity against human kinases related to MK2, cell viability, or human disease. […] Error is reported as the standard deviation between 2 samples, and “c” is rat AMPK whereas all other kinases used are human kinases.

IGF-1R = biological target: T3, IGF-1R (Homo sapiens, UniProt P08069); experiment: Millipore radiometric kinase activity assay, IGF-1R (h)
T3 construct: purchased Millipore (assay service)
T3 sequence (P08069 31-1367): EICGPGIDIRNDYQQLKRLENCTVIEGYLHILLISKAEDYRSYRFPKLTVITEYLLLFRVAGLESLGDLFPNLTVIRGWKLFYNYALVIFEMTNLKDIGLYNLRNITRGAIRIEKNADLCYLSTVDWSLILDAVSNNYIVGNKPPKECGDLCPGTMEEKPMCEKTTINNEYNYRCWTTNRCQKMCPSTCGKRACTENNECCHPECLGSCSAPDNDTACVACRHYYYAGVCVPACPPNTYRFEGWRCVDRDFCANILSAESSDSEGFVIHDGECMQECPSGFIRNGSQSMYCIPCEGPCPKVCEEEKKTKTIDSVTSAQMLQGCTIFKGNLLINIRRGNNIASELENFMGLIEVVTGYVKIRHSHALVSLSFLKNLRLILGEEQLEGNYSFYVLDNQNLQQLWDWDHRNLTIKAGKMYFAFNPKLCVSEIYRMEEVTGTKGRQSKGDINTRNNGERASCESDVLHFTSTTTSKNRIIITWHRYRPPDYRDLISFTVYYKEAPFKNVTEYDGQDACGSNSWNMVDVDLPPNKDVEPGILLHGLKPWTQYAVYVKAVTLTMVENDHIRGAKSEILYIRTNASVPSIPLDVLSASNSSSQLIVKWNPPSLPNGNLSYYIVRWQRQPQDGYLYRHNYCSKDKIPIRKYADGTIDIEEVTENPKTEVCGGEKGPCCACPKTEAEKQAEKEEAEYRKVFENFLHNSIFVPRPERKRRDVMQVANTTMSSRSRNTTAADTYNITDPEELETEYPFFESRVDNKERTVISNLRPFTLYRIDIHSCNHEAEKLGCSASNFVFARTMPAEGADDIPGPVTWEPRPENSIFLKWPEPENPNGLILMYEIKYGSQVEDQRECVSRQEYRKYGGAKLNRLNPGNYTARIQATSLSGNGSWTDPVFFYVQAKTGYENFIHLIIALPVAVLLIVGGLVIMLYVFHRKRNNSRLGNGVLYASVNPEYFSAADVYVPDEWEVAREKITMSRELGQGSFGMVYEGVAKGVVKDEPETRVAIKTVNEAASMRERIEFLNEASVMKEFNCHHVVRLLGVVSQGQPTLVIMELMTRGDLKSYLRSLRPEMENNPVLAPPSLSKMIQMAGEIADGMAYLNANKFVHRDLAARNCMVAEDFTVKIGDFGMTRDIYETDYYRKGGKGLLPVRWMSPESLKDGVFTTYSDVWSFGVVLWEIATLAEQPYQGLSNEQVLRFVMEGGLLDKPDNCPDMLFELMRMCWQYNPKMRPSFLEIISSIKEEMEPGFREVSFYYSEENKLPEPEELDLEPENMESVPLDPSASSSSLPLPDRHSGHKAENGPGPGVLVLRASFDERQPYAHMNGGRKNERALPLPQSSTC
Description: as §1
In a final reaction volume of 25 μL, IGF-1 R (h) (5-10 mU) is incubated with 50 mM Tris pH 7.5, 0.1 mM EGTA, 0.1 mM Na3VO4, 0.1% β-mercaptoethanol, 250 μM […] [SEQ ID NO: 56], 10 mM MnCl2, 10 mM MgAcetate and [γ-^33P-ATP] (specific activity approx. 500 cpm/pmol, concentration as required). The reaction is initiated by the addition of the MgATP mix. After incubation for 40 minutes at room temperature, the reaction is stopped by the addition of 5 μL of a 3% phosphoric acid solution. 10 μL of the reaction is then spotted onto a P30 filtermat and washed three times for 5 minutes in 75 mM phosphoric acid and once in methanol prior to drying and scintillation counting.
as §2, §3

MK2 = MK2 (Homo sapiens, UniProt P49137); experiment: Omnia fluorescence-based kinase activity assay for MAPKAP-K2 (reaction velocity); parameters: purchased Invitrogen; conditions: 100 μM peptide; percentage change in MK2 reaction velocity versus unsubstituted KALNRQLGVAA at 100 μM; SD of three samples
Sequence of MK2 (P49137 whole entry): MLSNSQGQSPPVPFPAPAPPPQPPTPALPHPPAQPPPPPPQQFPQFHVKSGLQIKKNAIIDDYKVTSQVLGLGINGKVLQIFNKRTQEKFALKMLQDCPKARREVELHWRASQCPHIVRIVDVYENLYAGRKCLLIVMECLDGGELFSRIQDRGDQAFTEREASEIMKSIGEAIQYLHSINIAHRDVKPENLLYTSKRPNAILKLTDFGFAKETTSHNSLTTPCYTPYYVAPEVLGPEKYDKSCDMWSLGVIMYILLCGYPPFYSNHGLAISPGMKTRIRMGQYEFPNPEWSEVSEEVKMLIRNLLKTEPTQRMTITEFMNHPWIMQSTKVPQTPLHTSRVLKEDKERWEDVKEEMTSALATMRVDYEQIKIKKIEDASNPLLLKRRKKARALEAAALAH
Description: The Omnia® Kinase Assay for MAPKAP-K2 kit (Invitrogen, Carlsbad, Calif.), was used to determine the reaction velocity for MK2 in the presence and absence of each of the peptides listed in Table 1. The kit contains a proprietary reaction buffer to which the following were added (final concentrations are given): 1 mM ATP, 0.2 mM DTT, 10 μM MAPKAP-K2 Sox-modified peptide substrate, 5 ng MK2, and the inhibitor peptide of interest (final volume of 50 μL). Human MK2 was purchased from Invitrogen. The reactions were performed at 30° C. in the wells of a low-protein-binding 96-well plate provided with the kit, and fluorescence readings (excitation=360 nm, emission=485 nm) were taken every 30 seconds for 20 minutes using a SpectraMax M5 Spectrophotometer (Molecular Devices). Reaction velocity was determined for each reaction well from the slope of a plot of relative fluorescence units versus time. Each inhibitor peptide was tested at least at four concentrations, 12.5, 25, 50 and […], in triplicate.
In Table 1, “a” represents that the results shown are for 100 μM for all peptides; “b” represents the percentage change in MK2 reaction velocity versus the unsubstituted peptide ([…]) [SEQ ID NO: 13] at a concentration of 100 μM; “c” represents the error reported as the standard deviation between three samples.

Sequence | Aurora-A Kinase Activity (%) (+SD %) (Aurora-A; peptide 30 μM) | Aurora-A Kinase Activity (%) (+SD %) (Aurora-A; peptide 100 μM) | BTK Kinase Activity (%) (+SD %) (BTK; peptide 30 μM) | BTK Kinase Activity (%) (+SD %) (BTK; peptide 100 μM) | IGF-1R Kinase Activity (%) (+SD %) (IGF-1R; peptide 30 μM) | IGF-1R Kinase Activity (%) (+SD %) (IGF-1R; peptide 100 μM) | percent change in MK2 reaction velocity versus unsubstituted peptide (MK2)
WLRRIKAWLRRIKALNRQLGVAA | 46 (1) % | 65 (5) % | 5 (0) % | 19 (1) % | 227 (12) % | 69 (4) % | −132(10) %
KAFAKLAARLYRKALARQLGVAA | – | 60 (1) % | – | 16 (3) % | – | 76 (12) % | –
